# Measured values as given in patent publication US20050142135A1, “Agents and methods for modulating interactions between gonadotropin hormones and receptors” (University of Kentucky Research Foundation, priority 2003, published 2005).
# How the values were obtained:
# human FSHR [1] = assay: ^125I-FSH binding to wild type and mutant FSH receptors on intact stably transfected HEK 293 cells; details: for FSH binding / Kd compared with the wild type receptor, in words: intact HEK 293 cells
# Experimental: (§1) Mutant FSHR cDNAs were prepared in the pSELECT vector using the Altered Sites Mutagenesis system (Promega), sequenced on a Beckman CEQ 2000XL capillary sequencer, subcloned into pcDNA3 (Invitrogen), and sequenced again to verify mutation sequences. […] Wild type and mutant receptor constructs were transfected into HEK 293 cells by the calcium phosphate method as previously described. Stable cell lines were established in minimum essential medium containing 10% horse serum and 500 μg/ml of G418. These cells were used for hormone binding, cAMP production. All assays were carried out in duplicate and repeated 4-5 times, and means±S.D. were calculated.
# (§2) The Kd values were determined by Scatchard plots. For intracellular cAMP assay, cells were washed twice with Dulbecco's modified Eagle's medium and incubated in the medium containing 0.1 μg/ml isobutylmethylxanthine for 15 mm. Increasing concentrations of FSH were then added and incubation was continued for 45 mm at 37° C. After removing the medium, the cells were rinsed once with fresh medium without isobutylmethylxanthine, lysed in 70% ethanol, freeze-thawed in liquid nitrogen, and scraped.
# Each mutant human FSHR cDNA was prepared in a pSELECT vector using the non-PCR based Altered Sites Mutagenesis System (Promega), sequenced on a Beckman CEQ 2000XL capillary sequencer and subcloned into pcDNA3 (Invitrogen) as described. After subcloning pcDNA3 the mutant cDNAs were sequenced again. Plasmids were transfected into human embryonic kidney (HEK) 293 cells by the calcium phosphate method. Stable cell lines were established in minimum essential medium containing 10% horse serum and 500 μg/ml of G-418, and then used for hormone binding and cAMP assay. All assays were carried out in duplicate and repeated 4-6 times. Means and standard variations were calculated.
# (§3) Human FSH (the National Hormone and Pituitary Program) was radioiodinated as previously described for radioiodination of hCG. […] The Kd values were determined by Scatchard plots. Truncated exodomain was solubilized in Nonidet P-40 and assayed for hormone binding as described previously. For intracellular cAMP assay, cells were washed twice with Dulbecco's modified Eagle's media and incubated in the media containing isobutylmethylxanthine (0.1 mg/ml) for 15 minutes. Increasing concentrations of FSH were then added and the incubation was continued for 45 minutes at 37° C. After removing the media, the cells were rinsed once with fresh media without isobutylmethylxanthine, lysed in 70% ethanol, freeze-thawed in liquid nitrogen, and scraped. […] Exoloop 3 of FSHR was modeled based on the crystal structure of rhodopsin as a template.
# human FSHR [2] = assay: FSH dependent intracellular cAMP assay, wild type and mutant FSHR in HEK 293 cells; assay type: cell-based; details: HEK 293 cells
# Experimental: as §1, §2, §3
Molecule,"FSH dependent cAMP induction / EC50 compared with the wild type receptor, in words (human FSHR [2])",further results
R^11A: human FSHR with Ala substituted for R11 (protein) CHHRICHCSNAVFLCQESKVTEIPSDLPRNAIELRFVLTKLRVIQKGAFSGFGDLEKIEISQNDVLEVIEADVFSNLPKLHEIRIEKANNLLYINPEAFQNLPNLQYLLISNTGIKHLPDVHKIHSLQKVLLDIQDNINIHTIERNSFVGLSFESVILWLNKNGIQEIHNCAFNGTQLDELNLSDNNNLEELPNDVFHGASGPVILDISRTRIHSLPSYGLENLKKLRARSTYNLKKLPTLEKLVALMEASLTYPSHCCAFANWRRQISELHPICNKSILRQEVDYMTQARGQRSSLAEDNESSYSRGFDMTYTEFDYDLCNEVVDVTCSPKPDAFNPCEDIMGYNILRVLIWFISILAITGNIIVLVILTTSQYKLTVPRFLMCNLAFADLCIGIYLLLIASVDIHTKSQYHNYAIDWQTGAGCDAAGFFTVFASELSVYTLTAITLERWHTITHAMQLDCKVQLRHAASVMVMGWIFAFAAALFPIFGISSYMKVSICLPMDIDSPLSQLYVMSLLVLNVLAFVVICGCYIHIYLTVRNPNIVSSSSDTRIAKRMAMLIFTDFLCMAPISFFAISASLKVPLITVSKAKILLVLFHPINSCANPFLYAIFTKNFRRDFFILLSKCGCYEMQAQIYRTETSSTVHNTHPRNGHCSSAPRVTSGSTYILVPLSHLAQN,,"FSH binding / Kd compared with the wild type receptor, in words (human FSHR [1]): improved hormone binding; FSH binding / Kd compared with the wild type receptor, in words (human FSHR [1]; listed as FSHR^R11A): lower than the wild type value"
F^13A: human FSHR with Ala substituted for F13 (protein) CHHRICHCSNRVALCQESKVTEIPSDLPRNAIELRFVLTKLRVIQKGAFSGFGDLEKIEISQNDVLEVIEADVFSNLPKLHEIRIEKANNLLYINPEAFQNLPNLQYLLISNTGIKHLPDVHKIHSLQKVLLDIQDNINIHTIERNSFVGLSFESVILWLNKNGIQEIHNCAFNGTQLDELNLSDNNNLEELPNDVFHGASGPVILDISRTRIHSLPSYGLENLKKLRARSTYNLKKLPTLEKLVALMEASLTYPSHCCAFANWRRQISELHPICNKSILRQEVDYMTQARGQRSSLAEDNESSYSRGFDMTYTEFDYDLCNEVVDVTCSPKPDAFNPCEDIMGYNILRVLIWFISILAITGNIIVLVILTTSQYKLTVPRFLMCNLAFADLCIGIYLLLIASVDIHTKSQYHNYAIDWQTGAGCDAAGFFTVFASELSVYTLTAITLERWHTITHAMQLDCKVQLRHAASVMVMGWIFAFAAALFPIFGISSYMKVSICLPMDIDSPLSQLYVMSLLVLNVLAFVVICGCYIHIYLTVRNPNIVSSSSDTRIAKRMAMLIFTDFLCMAPISFFAISASLKVPLITVSKAKILLVLFHPINSCANPFLYAIFTKNFRRDFFILLSKCGCYEMQAQIYRTETSSTVHNTHPRNGHCSSAPRVTSGSTYILVPLSHLAQN,lower than the wild type value,
"del: human FSHR deletion mutant, L583 deleted (protein, UniProt P23945 18-695, looked up, variant L583*) Follicle-stimulating hormone …: CHHRICHCSNRVFLCQESKVTEIPSDLPRNAIELRFVLTKLRVIQKGAFSGFGDLEKIEISQNDVLEVIEADVFSNLPKLHEIRIEKANNLLYINPEAFQNLPNLQYLLISNTGIKHLPDVHKIHSLQKVLLDIQDNINIHTIERNSFVGLSFESVILWLNKNGIQEIHNCAFNGTQLDELNLSDNNNLEELPNDVFHGASGPVILDISRTRIHSLPSYGLENLKKLRARSTYNLKKLPTLEKLVALMEASLTYPSHCCAFANWRRQISELHPICNKSILRQEVDYMTQARGQRSSLAEDNESSYSRGFDMTYTEFDYDLCNEVVDVTCSPKPDAFNPCEDIMGYNILRVLIWFISILAITGNIIVLVILTTSQYKLTVPRFLMCNLAFADLCIGIYLLLIASVDIHTKSQYHNYAIDWQTGAGCDAAGFFTVFASELSVYTLTAITLERWHTITHAMQLDCKVQLRHAASVMVMGWIFAFAAALFPIFGISSYMKVSICLPMDIDSPLSQLYVMSLLVLNVLAFVVICGCYIHIYLTVRNPNIVSSSSDTRIAKRMAMLIFTDFCMAPISFFAISASLKVPLITVSKAKILLVLFHPINSCANPFLYAIFTKNFRRDFFILLSKCGCYEMQAQIYRTETSSTVHNTHPRNGHCSSAPRVTSGSTYILVPLSHLAQN",,"improvement of hormone binding affinity (decrease of Kd) compared with wild type (human FSHR [1]; FSH binding, mutant versus wild type FSHR): more than 4 fold"

# Continued, in another order:
"FSH dependent cAMP induction / EC50 compared with the wild type receptor, in words (human FSHR [2])",Molecule,further results
lower than the wild type value,V^12A: human FSHR with Ala substituted for V12 (protein) CHHRICHCSNRAFLCQESKVTEIPSDLPRNAIELRFVLTKLRVIQKGAFSGFGDLEKIEISQNDVLEVIEADVFSNLPKLHEIRIEKANNLLYINPEAFQNLPNLQYLLISNTGIKHLPDVHKIHSLQKVLLDIQDNINIHTIERNSFVGLSFESVILWLNKNGIQEIHNCAFNGTQLDELNLSDNNNLEELPNDVFHGASGPVILDISRTRIHSLPSYGLENLKKLRARSTYNLKKLPTLEKLVALMEASLTYPSHCCAFANWRRQISELHPICNKSILRQEVDYMTQARGQRSSLAEDNESSYSRGFDMTYTEFDYDLCNEVVDVTCSPKPDAFNPCEDIMGYNILRVLIWFISILAITGNIIVLVILTTSQYKLTVPRFLMCNLAFADLCIGIYLLLIASVDIHTKSQYHNYAIDWQTGAGCDAAGFFTVFASELSVYTLTAITLERWHTITHAMQLDCKVQLRHAASVMVMGWIFAFAAALFPIFGISSYMKVSICLPMDIDSPLSQLYVMSLLVLNVLAFVVICGCYIHIYLTVRNPNIVSSSSDTRIAKRMAMLIFTDFLCMAPISFFAISASLKVPLITVSKAKILLVLFHPINSCANPFLYAIFTKNFRRDFFILLSKCGCYEMQAQIYRTETSSTVHNTHPRNGHCSSAPRVTSGSTYILVPLSHLAQN,
lower than the wild type value,S^9A: human FSHR with Ala substituted for S9 (protein) CHHRICHCANRVFLCQESKVTEIPSDLPRNAIELRFVLTKLRVIQKGAFSGFGDLEKIEISQNDVLEVIEADVFSNLPKLHEIRIEKANNLLYINPEAFQNLPNLQYLLISNTGIKHLPDVHKIHSLQKVLLDIQDNINIHTIERNSFVGLSFESVILWLNKNGIQEIHNCAFNGTQLDELNLSDNNNLEELPNDVFHGASGPVILDISRTRIHSLPSYGLENLKKLRARSTYNLKKLPTLEKLVALMEASLTYPSHCCAFANWRRQISELHPICNKSILRQEVDYMTQARGQRSSLAEDNESSYSRGFDMTYTEFDYDLCNEVVDVTCSPKPDAFNPCEDIMGYNILRVLIWFISILAITGNIIVLVILTTSQYKLTVPRFLMCNLAFADLCIGIYLLLIASVDIHTKSQYHNYAIDWQTGAGCDAAGFFTVFASELSVYTLTAITLERWHTITHAMQLDCKVQLRHAASVMVMGWIFAFAAALFPIFGISSYMKVSICLPMDIDSPLSQLYVMSLLVLNVLAFVVICGCYIHIYLTVRNPNIVSSSSDTRIAKRMAMLIFTDFLCMAPISFFAISASLKVPLITVSKAKILLVLFHPINSCANPFLYAIFTKNFRRDFFILLSKCGCYEMQAQIYRTETSSTVHNTHPRNGHCSSAPRVTSGSTYILVPLSHLAQN,
